# Key:
# Assay type in all cases: cell-based
# [1] = test system: Articular cartilage explants from calf carpal joints; test: Articular cartilage assay (proteoglycan synthesis, sulfate incorporation)
# Experimental: The effect of BMP-9 on articular cartilage proteoglycan and DNA synthesis is assayed to determine if BMP-9 is involved in the regulation of metabolism of differentiated articular cartilage.
# Articular cartilage explants from calf carpal joints are maintained in DMEM with 50 μg/ml ascorbate, 4 mM glutamine and antibiotics for 3 days. Cytokines (rhBMP-2, rhBMP-4, rhBMP-6 and rhBMP-9, IGF-1, bFGF (1-1000 ng/ml), and TGFβ (1-100 ng/ml)) are added to the medium and culture is continued for 3 more days. Medium is changed daily. Twenty-four hours prior to harvest, explants are pulsed with 50 μCi/ml ^35 SO4 or 25 μCi/ml ^3 H-thymidine. Explants are solubilized and separation of free isotope is performed by gel chromatography. Total DNA of each explant is measured by a spectrophotometric assay.
# HepG2 cells = test: HepG2 cell proliferation (3H-thymidine incorporation, cell counting)
# Experimental: As a first indication of BMP-9 effects on confluent, serum starved HepG2 cells, cell proliferation is examined as determined by ^3 H-thymidine incorporation and cell counting. HepG2 cells are plated at […] in 96 well plates and cultured for 48 hours in DME/0.1% FCS to synchronize the cell cycle are treated for 24 hours with or without BMP-9 in the presence of 0.1% FCS. In ^3 H-thymidine incorporation assays, ^3 H-thymidine was included during the last 4 hours of treatment and cellular DNA was collected with a 96 well plate cell harvester. Proliferation was assayed by quantifying ethanol-precipitable ^3 H-thymidine incorporation by liquid scintillation counting. For cell counting assays, cells were trypsinized and counted with a hemacytometer. Primary rat hepatocytes isolated from male Fischer 344 rats (Charles River, Wilmington, Mass.) by collagenase digestion as previously described [Michalopoulos et al., Cancer Res. 42:4673-4682 (1982)] are plated on collagen-coated plates at subconfluence (5,000-10,000 cells/cm^2) in serum-free media as described in Michalopoulos et al., Cancer Res. 42:4673-4682 (1982) and treated with or without rhBMP-9 for 36 hours. ^3 H-thymidine was included throughout the treatment period and incorporated ^3 H-thymidine was quantified as described by Anscher et al., New England J. Med. 328:1592-1598 (1993). BMP-9 stimulates ^3 H-thymidine incorporation in HepG2 cells approximately five fold.
# W-20-17 = test: Alkaline phosphatase activity in W-20-17 osteoprogenitor cell line; conditions: dose responsive
# Experimental: W-20 cells are plated into 96 well tissue culture plates at a density of 10,000 cells per well in 200 μl of media (DME with 10% heat inactivated fetal calf serum, 2 mM glutamine and 100 U/ml+100 μg/ml streptomycin. The cells are allowed to attach overnight in a 95% air, 5% CO2 incubator at 37° C.
# The 200 μl of media is removed from each well with a multichannel pipettor and replaced with an equal volume of test sample delivered in DME with 10% heat inactivated fetal calf serum, 2 mM glutamine and 1% penicillin-streptomycin. Test substances are assayed in triplicate.
# The test samples and standards are allowed a 24 hour incubation period with the W-20 indicator cells. After the 24 hours, plates are removed from the 37° C. incubator and the test media are removed from the cells.
# The W-20 cell layers are washed 3 times with 200 μl per well of calcium/magnesium free phosphate buffered saline and these washes are discarded.
# 50 μl of glass distilled water is added to each well and the assay plates are then placed on a dry ice/ethanol bath for quick freezing. Once frozen, the assay plates are removed from the dry ice/ethanol bath and thawed at 37° C. […]
# The spectrophotometric absorbance for each well is read at a wavelength of 405 nanometers. […] For example, using known amounts of p-nitrophenol phosphate, absorbance values are generated.
molecule,measurement,setting,value
"BMP-9: recombinant human bone morphogenetic protein-9, mature amino acids #1-#110 of SEQ ID NO:9, expressed in CHO cells (protein, 125I-iodinated as tracer; unlabelled BMP-9 used as the displacing ligand) TRECSRSCPRTAPQRQVRAVTRRTRMAHVAAGSTLARRKRSAGAGSHCQKTSLRVNFEDIGWDSWIIAPKEYEAYECKGGCFFPLADDVTPTKHAIVQTLVHLKFPTKVG",proteoglycan synthesis,"[1]; 100 ng/ml, calf articular cartilage explants",significantly more active in stimulating proteoglycan synthesis
same,proteoglycan synthesis versus control,"[1]; dose of 10 ng/ml, p<0.05, calf articular cartilage explants",stimulates proteoglycan synthesis above control levels
same,"ED50, stimulation of 3H-thymidine incorporation","HepG2 cells; HepG2 cells, estimated",10 ng/mL
same,cell counting,"HepG2 cells; HepG2 cells, treated 24 hours",stimulatory effect
same,stimulation of 3H-thymidine incorporation,"HepG2 cells; confluent, serum starved HepG2 cells, treated 24 hours, 0.1% FCS",approximately five
same,"ED50, stimulation of alkaline phosphatase activity",W-20-17,4 ng/mL

# — patent US6034062A, “Bone morphogenetic protein (BMP)-9 compositions and their uses” (Genetics Institute, Inc., priority 1997, dated 2000)
